The target in test [1] is CRF receptors on rat anterior pituitary cells (rat).
The target is the same in test [2]. This is another data set of the same source.
For test [3] the target is unchanged. The source holds these as a separate data set.
Test [4] shares this target. This is another data set of the same source.
Test [5] has the same target. The source holds these as a separate data set.
The target is the same in test [6]. This is another data set of the same source.

From patent US5777073 come the findings set out here.

Like-named read-outs stand apart in the source and are kept apart here.

“(cyclo 28-31) D-Phe^12, Nle^21,38, Glu^28, Lys^31 !-r/hCRF(12-41) (peptide)” showed an in vitro biopotency: inhibition of ACTH secretion (times the Standard) in test [1] of 3.12.
Regarding “(cyclo 28-32) D-Phe^12, Nle^21,38, Glu^28, D-Ala^31, Lys^32 !-r/hCRF(12-41) (peptide)”, in test [2], the in vitro biopotency: inhibition of ACTH secretion (times the Standard) was found to be 4.91.
“(cyclo 28-32) D-Phe^12, Nle^21,38, Glu^28, D-Gln^30, Lys^32 !-r/hCRF(12-41) (peptide)”: the in vitro biopotency: inhibition of ACTH secretion (times the Standard) in test [3] amounted to 3.69.
For the substance “(cyclo 28-32) D-Phe^12, Nle^21,38, Glu^28, Lys^32 !-r/hCRF(12-41) (peptide)”, the in vitro biopotency: inhibition of ACTH secretion (times the Standard) in test [4] was 7.3.
Take “(cyclo 29-32) D-Phe^12, Nle^21,38, Glu^29, Lys^32 -r/hCRF(12-41) (peptide)”: in test [5], the in vitro biopotency: inhibition of ACTH secretion (times the Standard) came to 3.38.
In test [6], “(cyclo 29-33) D-Phe^12, Nle^21,38, Glu^29, Lys^33 -r/hCRF(12-41) (peptide)” returned an in vitro biopotency: inhibition of ACTH secretion (times the Standard) of 7.15.
